Assays:
[1] = molecular target: cystathionine γ-lyase from Toxoplasma gondii (Toxoplasma gondii); test: SEC; analytical gel filtration on Superdex 200 HR 10/300 GL; 50 mM sodium phosphate buffer pH 8.5, 150 mM NaCl, 0.1 mM DTT; mass from a calibration curve
[2] = molecular target: T1, Cystathionine γ-lyase (TgCGL) (Toxoplasma gondii, UniProt A0A125YN40); test: intrinsic fluorescence titration of apo-TgCGL (excitation […] nm, emission […] nm); type: binding
T1 construct: gene TGME49_312930; full-length, N-terminal His6 tag (apo-protein)

[3] = test system: N[C@@H](CCSC[C@H](N)C(=O)O)C(=O)O; test: purified protein; type: biochemical, Toxoplasma gondii; details: PLP active site; external aldimine with PLP (modelled); pH 9.0; 37.0 °C
[4] = test system: N[C@@H](CSCSC[C@H](N)C(=O)O)C(=O)O; test: steady-state kinetics of the purified enzyme, LDH-coupled assay (Km); type: biochemical, Toxoplasma gondii; details: PLP; pH 9.0; 37.0 °C
[5] = molecular target: T2, Cystathionine γ-lyase (TgCGL) (Toxoplasma gondii, UniProt A0A125YN40); test: UV-visible absorption titration at […] and […] nm; also substrate inhibition (Ki […]); type: binding
T2 construct: gene TGME49_312930; full-length, N-terminal His6 tag
T2 sequence (A0A125YN40 1-417): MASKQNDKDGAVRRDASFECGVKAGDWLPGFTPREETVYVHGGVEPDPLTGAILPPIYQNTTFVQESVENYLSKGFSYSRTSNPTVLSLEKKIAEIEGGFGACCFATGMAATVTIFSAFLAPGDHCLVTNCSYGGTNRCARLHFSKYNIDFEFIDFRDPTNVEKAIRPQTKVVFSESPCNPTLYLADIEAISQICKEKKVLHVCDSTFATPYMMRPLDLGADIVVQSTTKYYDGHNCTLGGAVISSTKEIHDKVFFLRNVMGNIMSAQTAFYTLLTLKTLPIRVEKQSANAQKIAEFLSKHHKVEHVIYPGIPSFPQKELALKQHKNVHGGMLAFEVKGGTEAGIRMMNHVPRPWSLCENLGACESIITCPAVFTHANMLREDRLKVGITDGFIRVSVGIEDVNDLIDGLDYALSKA

[6] = molecular target: T3, Cystathionine γ-lyase (TgCGL) (Toxoplasma gondii, UniProt A0A125YN40, N360S); test: as above; type: binding
T3 construct: gene TGME49_312930; full-length, N-terminal His6 tag

[7] = molecular target: T4, Cystathionine γ-lyase (TgCGL) (Toxoplasma gondii, UniProt A0A125YN40, S77E); test: UV-visible absorption titration at […] and […] nm (no hydrolysis detected); type: binding
T4 construct: gene TGME49_312930; full-length, N-terminal His6 tag
T4 sequence (A0A125YN40 1-417 S77E): T2 sequence (A0A125YN40 1-417)

[8] = test system: N[C@@H](CCSC[C@H](N)C(=O)O)C(=O)O; test: steady-state kinetics of the purified enzyme, DTNB assay (Km); type: biochemical, Toxoplasma gondii; details: PLP; pH 9.0; 37.0 °C
[9] = substrate: N[C@@H](CSCSC[C@H](N)C(=O)O)C(=O)O; test: steady-state kinetics of the purified enzyme, LDH-coupled assay (Km); type: biochemical, Toxoplasma gondii; details: PLP; pH 9.0; 37.0 °C; remark: listed apart in the source
purified protein = substrate: N[C@@H](CCSC[C@H](N)C(=O)O)C(=O)O; test: purified protein; details: PLP active site; external aldimine with PLP (modelled); pH 9.0; 37.0 °C
[10] = substrate: NCCSC[C@H](N)C(=O)O; test: steady-state kinetics of the purified enzyme, α,β-elimination (Km); type: biochemical, Toxoplasma gondii; details: PLP

“cystathionine γ-lyase from Toxoplasma gondii (enzyme)” was tested, and the stoichiometry N [1] was 4.

Work on `Cc1ncc(COP(=O)(O)O)c(C=O)c1O` [PLP] yielded a Kd [2] of 170 ± 40 nM.

In the case of “Cystathionine γ-lyase (TgCGL) (Toxoplasma gondii ME49; N360S)”, the Km [3] is reported as 1100 ± 100 µM, the kcat [3] is reported as 0.08 ± 0.01 s⁻¹ and the kcat/Km [3] is reported as 73 ± 16 M⁻¹ s⁻¹. The Km [4] was 860 ± 30 µM, the kcat [4] was 0.19 ± 0.01 s⁻¹ and the kcat/Km [4] was 220 ± 20 M⁻¹ s⁻¹.

`N[C@@H](CS)C(=O)O` [L-cysteine] was tested, and the Kd [5] was 306 ± 41 (335 nm); 273 ± 52 (421 nm) µM, the Kd [6] was 335 ± 15 (335 nm); 331 ± 20 (421 nm) µM and the Kd [7] was 677 ± 180 (335 nm); 874 ± 87 (421 nm) µM.

“Cystathionine γ-lyase (TgCGL) (Toxoplasma gondii ME49; S77A)” gave a Km [8] of 2400 ± 300 µM, a kcat [8] of 0.7 ± 0.1 s⁻¹ and a kcat/Km [8] of 290 ± 80 M⁻¹ s⁻¹.

B1: Cystathionine γ-lyase (TgCGL) (Toxoplasma gondii ME49) (protein)
chain: T2 sequence (A0A125YN40 1-417)
notes: full-length, N-terminal His6 tag
B1 gave a Km [9] of 510 ± 10 µM, a kcat [9] of 0.24 ± 0.01 s⁻¹ and a kcat/Km [9] of 470 ± 30 M⁻¹ s⁻¹. It also gave a Km (purified protein) of 900 ± 100 µM and a Km [10] of 1300 ± 100 µM.
